In patent US20170306002A1 (UNITED STATES OF AMERICA AS REPESENTED BY THE SECRETARY …, published 2017):

Target: recombinant CA/09 NA protein (baculovirus, with N-terminal His-tag, tetramerization domain and thrombin site) (human; influenza A virus …, UniProt P50552 336-380)
Sequence (P50552 336-380): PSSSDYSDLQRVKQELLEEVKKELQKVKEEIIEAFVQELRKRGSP

B1: mAb CD6 (whole IgG) (antibody, V domains shown)
VH: QVKLQESGGGLVQPKGSLKLSCAASGFTFNTYAMNWVRQAPGKGLEWVARIRSKSNNYATFYADSVKDRFTISRDDSQSMLYLQMHNLKTDDTAMYYCVRPSIYYYASGYLDVWGAGTTVTVSS
VL: QIVLSQSPAILSASPGEKVTMTCRTSSSVSYMHWYQQKPGSSPKPWIYATSNLASGVPFRFSGSGSGTSYSLTISRVEAEDAATYYCQQWNSNPPTFGGGTKLEIKR
B1 was tested, and the Kd was roughly 95 nM.
